Results from article PMC3173194.

Biological target: GalNAc-glycosylated recombinant MUC2 fragment (UniProt Q02817)
Test: peptide or protein array

**Q.** With “GalNAc-T2 with a mutation in the α-lectin subdomain (GalNAc-T2^458H) (from UniProt Q10471 52-571) (enzyme)” as the substance, how does the percent of the total binding (of GalNAc-T2 to GalNAc-MUC2, with Mn2+ and UDP) read?
**A.** The percent of the total binding (of GalNAc-T2 to GalNAc-MUC2, with Mn2+ and UDP) was 20%.
